Assay results as given in article PMC11319201.

Molecular target: STAG2^R370Q–RAD21 complex (UniProt Q8N3U4)
Assay: ITC; MicroCal iTC 200, 25 °C; 20 mM Tris pH 7.7, 150 mM NaCl, 0.5 mM TCEP; 300 μl of 50 μM STAG2–RAD21 in the cell, 500 μM CTCF peptide injected as 16 x 2.5 μl; one-site binding model

Chain of STAG2^R370Q–RAD21 complex (Q8N3U4 whole entry R370Q, chain 1 of 2): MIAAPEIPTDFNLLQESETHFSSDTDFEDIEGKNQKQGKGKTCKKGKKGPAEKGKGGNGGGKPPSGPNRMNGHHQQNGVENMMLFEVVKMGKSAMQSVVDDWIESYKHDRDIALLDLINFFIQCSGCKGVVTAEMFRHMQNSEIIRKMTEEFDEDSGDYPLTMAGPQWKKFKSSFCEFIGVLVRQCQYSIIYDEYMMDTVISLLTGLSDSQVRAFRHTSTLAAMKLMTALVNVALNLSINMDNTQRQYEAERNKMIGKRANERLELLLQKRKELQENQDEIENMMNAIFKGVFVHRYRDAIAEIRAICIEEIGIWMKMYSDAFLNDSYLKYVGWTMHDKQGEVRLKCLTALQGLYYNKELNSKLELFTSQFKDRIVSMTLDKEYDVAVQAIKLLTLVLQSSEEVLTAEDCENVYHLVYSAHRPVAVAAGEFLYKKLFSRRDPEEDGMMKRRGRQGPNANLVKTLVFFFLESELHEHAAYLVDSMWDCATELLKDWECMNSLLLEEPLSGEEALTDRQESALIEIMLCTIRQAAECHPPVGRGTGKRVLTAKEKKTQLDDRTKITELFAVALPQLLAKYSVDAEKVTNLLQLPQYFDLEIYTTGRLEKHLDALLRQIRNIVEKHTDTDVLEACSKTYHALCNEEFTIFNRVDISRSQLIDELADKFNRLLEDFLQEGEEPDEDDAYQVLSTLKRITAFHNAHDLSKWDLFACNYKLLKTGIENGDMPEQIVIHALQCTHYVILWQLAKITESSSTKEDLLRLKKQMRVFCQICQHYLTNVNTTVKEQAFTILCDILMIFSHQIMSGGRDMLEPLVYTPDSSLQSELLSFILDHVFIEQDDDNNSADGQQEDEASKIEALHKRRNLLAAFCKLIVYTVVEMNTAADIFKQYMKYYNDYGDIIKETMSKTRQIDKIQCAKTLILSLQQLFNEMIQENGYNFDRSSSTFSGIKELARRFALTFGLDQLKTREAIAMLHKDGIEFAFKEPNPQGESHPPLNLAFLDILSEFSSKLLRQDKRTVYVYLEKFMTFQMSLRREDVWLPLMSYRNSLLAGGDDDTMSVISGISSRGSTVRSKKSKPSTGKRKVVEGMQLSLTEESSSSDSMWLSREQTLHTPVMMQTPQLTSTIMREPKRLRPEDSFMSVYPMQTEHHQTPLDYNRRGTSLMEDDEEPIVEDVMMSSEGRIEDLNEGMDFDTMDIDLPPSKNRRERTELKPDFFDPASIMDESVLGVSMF
Chain of STAG2^R370Q–RAD21 complex (O60216 whole entry, chain 2 of 2, further chain): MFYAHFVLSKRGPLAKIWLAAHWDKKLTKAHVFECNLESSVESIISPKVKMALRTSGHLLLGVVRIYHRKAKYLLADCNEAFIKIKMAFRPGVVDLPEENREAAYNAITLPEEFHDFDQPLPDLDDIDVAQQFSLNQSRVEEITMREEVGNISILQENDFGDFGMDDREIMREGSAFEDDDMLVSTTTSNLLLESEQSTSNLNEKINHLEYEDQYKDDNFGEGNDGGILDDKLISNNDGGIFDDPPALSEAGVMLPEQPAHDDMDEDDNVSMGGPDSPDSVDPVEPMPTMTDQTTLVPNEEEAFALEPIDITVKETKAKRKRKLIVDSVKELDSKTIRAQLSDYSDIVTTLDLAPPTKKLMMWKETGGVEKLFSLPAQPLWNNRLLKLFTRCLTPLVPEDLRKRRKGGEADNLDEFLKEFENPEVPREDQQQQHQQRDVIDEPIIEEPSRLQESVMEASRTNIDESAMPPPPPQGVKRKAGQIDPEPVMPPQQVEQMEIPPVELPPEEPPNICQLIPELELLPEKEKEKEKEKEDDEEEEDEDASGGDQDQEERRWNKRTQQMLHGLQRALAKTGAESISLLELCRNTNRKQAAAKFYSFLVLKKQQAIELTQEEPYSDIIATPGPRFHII

CTCF peptide was tested. Which fold lower affinity than WT did it give?
Its fold lower affinity than WT is 10 fold.
